Experimental data from article PMC4615246 (Nucleus, 2015).

T1: LacI-CFP-Nup153 (human, UniProt P49790 1-1475)
T1 sequence: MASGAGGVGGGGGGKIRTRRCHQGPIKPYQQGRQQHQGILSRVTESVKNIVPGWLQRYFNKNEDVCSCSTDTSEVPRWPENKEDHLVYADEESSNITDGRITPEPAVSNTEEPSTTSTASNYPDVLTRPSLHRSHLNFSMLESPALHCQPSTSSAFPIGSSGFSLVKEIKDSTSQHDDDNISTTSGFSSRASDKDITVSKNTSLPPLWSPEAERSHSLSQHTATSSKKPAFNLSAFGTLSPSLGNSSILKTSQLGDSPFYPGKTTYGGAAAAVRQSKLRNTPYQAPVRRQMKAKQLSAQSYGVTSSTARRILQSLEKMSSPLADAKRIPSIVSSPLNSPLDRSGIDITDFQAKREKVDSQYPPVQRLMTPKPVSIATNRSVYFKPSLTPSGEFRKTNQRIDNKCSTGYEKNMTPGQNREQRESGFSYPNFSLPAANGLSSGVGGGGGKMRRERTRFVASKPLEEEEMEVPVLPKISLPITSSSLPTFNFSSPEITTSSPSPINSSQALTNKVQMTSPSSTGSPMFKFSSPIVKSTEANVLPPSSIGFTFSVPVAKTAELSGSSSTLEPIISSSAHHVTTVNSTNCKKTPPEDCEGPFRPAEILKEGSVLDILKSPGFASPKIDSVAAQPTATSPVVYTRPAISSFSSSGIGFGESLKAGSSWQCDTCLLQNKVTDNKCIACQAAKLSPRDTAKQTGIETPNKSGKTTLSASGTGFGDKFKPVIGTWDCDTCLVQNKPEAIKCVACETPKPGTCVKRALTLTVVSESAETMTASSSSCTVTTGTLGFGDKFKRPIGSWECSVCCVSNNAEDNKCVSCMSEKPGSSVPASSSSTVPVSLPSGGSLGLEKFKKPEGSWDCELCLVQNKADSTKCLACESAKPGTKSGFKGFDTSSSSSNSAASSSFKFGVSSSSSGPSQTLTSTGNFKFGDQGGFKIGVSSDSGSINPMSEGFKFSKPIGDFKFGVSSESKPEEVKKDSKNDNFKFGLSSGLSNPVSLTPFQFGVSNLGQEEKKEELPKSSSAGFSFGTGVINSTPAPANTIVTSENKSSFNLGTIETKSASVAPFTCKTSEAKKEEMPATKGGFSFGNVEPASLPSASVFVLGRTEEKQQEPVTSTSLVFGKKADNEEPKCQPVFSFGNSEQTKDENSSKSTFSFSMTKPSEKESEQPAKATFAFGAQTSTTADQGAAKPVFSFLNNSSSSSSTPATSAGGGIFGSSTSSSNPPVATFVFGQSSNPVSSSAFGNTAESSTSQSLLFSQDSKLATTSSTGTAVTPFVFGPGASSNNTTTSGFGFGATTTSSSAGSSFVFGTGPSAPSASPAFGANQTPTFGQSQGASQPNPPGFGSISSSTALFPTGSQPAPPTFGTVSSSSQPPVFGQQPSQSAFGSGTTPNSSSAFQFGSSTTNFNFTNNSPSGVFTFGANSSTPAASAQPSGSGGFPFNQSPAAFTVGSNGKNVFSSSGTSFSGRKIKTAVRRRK

T2: LacI-CFP-Nup133 (human, UniProt Q8WUM0 1-1156)
T2 sequence: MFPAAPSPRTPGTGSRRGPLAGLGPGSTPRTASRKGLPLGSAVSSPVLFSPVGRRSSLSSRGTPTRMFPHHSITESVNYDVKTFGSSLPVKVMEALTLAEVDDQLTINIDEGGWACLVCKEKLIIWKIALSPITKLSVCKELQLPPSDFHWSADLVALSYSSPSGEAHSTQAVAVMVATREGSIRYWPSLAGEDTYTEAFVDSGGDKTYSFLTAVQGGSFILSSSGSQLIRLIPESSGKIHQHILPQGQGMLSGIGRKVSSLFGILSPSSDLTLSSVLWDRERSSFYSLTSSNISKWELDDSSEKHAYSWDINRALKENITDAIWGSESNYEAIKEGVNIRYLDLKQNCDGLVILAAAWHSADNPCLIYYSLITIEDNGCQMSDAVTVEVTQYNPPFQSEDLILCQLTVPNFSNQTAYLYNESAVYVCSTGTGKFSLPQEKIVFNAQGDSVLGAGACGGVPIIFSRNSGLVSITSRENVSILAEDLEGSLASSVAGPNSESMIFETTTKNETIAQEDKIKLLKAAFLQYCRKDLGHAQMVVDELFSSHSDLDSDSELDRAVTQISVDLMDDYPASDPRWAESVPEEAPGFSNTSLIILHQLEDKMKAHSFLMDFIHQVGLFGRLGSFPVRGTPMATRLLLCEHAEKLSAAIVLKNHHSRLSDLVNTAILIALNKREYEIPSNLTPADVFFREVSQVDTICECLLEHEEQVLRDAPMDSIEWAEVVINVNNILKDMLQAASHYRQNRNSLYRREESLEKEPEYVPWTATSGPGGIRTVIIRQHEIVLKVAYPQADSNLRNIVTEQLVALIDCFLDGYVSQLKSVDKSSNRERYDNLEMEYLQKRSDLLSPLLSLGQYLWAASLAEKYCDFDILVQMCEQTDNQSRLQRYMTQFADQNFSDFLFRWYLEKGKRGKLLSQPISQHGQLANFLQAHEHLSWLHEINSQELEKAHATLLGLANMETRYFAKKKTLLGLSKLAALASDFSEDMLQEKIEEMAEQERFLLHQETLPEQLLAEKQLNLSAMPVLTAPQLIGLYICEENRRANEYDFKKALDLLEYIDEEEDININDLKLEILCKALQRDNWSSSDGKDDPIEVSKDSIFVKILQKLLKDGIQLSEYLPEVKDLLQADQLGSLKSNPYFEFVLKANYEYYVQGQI


Legend:
[1] = target: T1, LacI-CFP-Nup153; assay: LacI/LacO array recruitment in cells
[2] = target: T2, LacI-CFP-Nup133; assay: LacI/LacO array recruitment in cells

| Binder | percent of transfected cells showing colocalization [1] [%] | percent of transfected cells showing colocalization [2] [%] |
| --- | --- | --- |
| Nup85 (endogenous) (natural protein) MEELDGEPTVTLIPGVNSKKNQMYFDWGPGEMLVCETSFNKKEKSEMVPSCPFIYIIRKDVDVYSQILRKLFNESHGIFLGLQRIDEELTGKSRKSQLVRVSKNYRSVIRACMEEMHQVAIAAKDPANGRQFSSQVSILSAMELIWNLCEILFIEVAPAGPLLLHLLDWVRLHVCEVDSLSADVLGSENPSKHDSFWNLVTILVLQGRLDEARQMLSKEADASPASAGICRIMGDLMRTMPILSPGNTQTLTELELKWQHWHEECERYLQDSTFATSPHLESLLKIMLGDEAALLEQKELLSNWYHFLVTRLLYSNPTVKPIDLHYYAQSSLDLFLGGESSPEPLDNILLAAFEFDIHQVIKECSIALSNWWFVAHLTDLLDHCKLLQSHNLYFGSNMREFLLLEYASGLFAHPSLWQLGVDYFDYCPELGRVSLELHIERIPLNTEQKALKVLRICEQRQMTEQVRSICKILAMKAVRNNRLGSALSWSIRAKDAAFATLVSDRFLRDYCERGCFSDLDLIDNLGPAMMLSDRLTFLGKYREFHRMYGEKRFADAASLLLSLMTSRIAPRSFWMTLLTDALPLLEQKQVIFSAEQTYELMRCLEDLTSRRPVHGESDTEQLQDDDIETTKVEMLRLSLARNLARAIIREGSLEGS | 58 | 86 |
| Nup62 (endogenous) (natural protein) MSGFNFGGTGAPTGGFTFGTAKTATTTPATGFSFSTSGTGGFNFGAPFQPATSTPSTGLFSLATQTPATQTTGFTFGTATLASGGTGFSLGIGASKLNLSNTAATPAMANPSGFGLGSSNLTNAISSTVTSSQGTAPTGFVFGPSTTSVAPATTSGGFSFTGGSTAQPSGFNIGSAGNSAQPTAPATLPFTPATPAATTAGATQPAAPTPTATITSTGPSLFASIATAPTSSATTGLSLCTPVTTAGAPTAGTQGFSLKAPGAASGTSTTTSTAATATATTTSSSSTTGFALNLKPLAPAGIPSNTAAAVTAPPGPGAAAGAAASSAMTYAQLESLINKWSLELEDQERHFLQQATQVNAWDRTLIENGEKITSLHREVEKVKLDQKRLDQELDFILSQQKELEDLLSPLEELVKEQSGTIYLQHADEEREKTYKLAENIDAQLKRMAQDLKDIIEHLNTSGAPADTSDPLQQICKILNAHMDSLQWIDQNSALLQRKVEEVTKVCEGRRKEQERSFRITFD | 56 | 5 |

Continued, values first:

| percent of transfected cells showing colocalization [1] [%] | percent of transfected cells showing colocalization [2] [%] | Binder |
| --- | --- | --- |
| 33 | 44 | Nup160 (endogenous) (natural protein) MLHLSAAPPAPPPEVTATARPCLCSVGRRGDGGKMAAAGALERSFVELSGAERERPRHFREFTVCSIGTANAVAGAVKYSESAGGFYYVESGKLFSVTRNRFIHWKTSGDTLELMEESLDINLLNNAIRLKFQNCSVLPGGVYVSETQNRVIILMLTNQTVHRLLLPHPSRMYRSELVVDSQMQSIFTDIGKVDFTDPCNYQLIPAVPGISPNSTASTAWLSSDGEALFALPCASGGIFVLKLPPYDIPGMVSVVELKQSSVMQRLLTGWMPTAIRGDQSPSDRPLSLAVHCVEHDAFIFALCQDHKLRMWSYKEQMCLMVADMLEYVPVKKDLRLTAGTGHKLRLAYSPTMGLYLGIYMHAPKRGQFCIFQLVSTESNRYSLDHISSLFTSQETLIDFALTSTDIWALWHDAENQTVVKYINFEHNVAGQWNPVFMQPLPEEEIVIRDDQDPREMYLQSLFTPGQFTNEALCKALQIFCRGTERNLDLSWSELKKEVTLAVENELQGSVTEYEFSQEEFRNLQQEFWCKFYACCLQYQEALSHPLALHLNPHTNMVCLLKKGYLSFLIPSSLVDHLYLLPYENLLTEDETTISDDVDIARDVICLIKCLRLIEESVTVDMSVIMEMSCYNLQSPEKAAEQILEDMITIDVENVMEDICSKLQEIRNPIHAIGLLIREMDYETEVEMEKGFNPAQPLNIRMNLTQLYGSNTAGYIVCRGVHKIASTRFLICRDLLILQQLLMRLGDAVIWGTGQLFQAQQDLLHRTAPLLLSYYLIKWGSECLATDVPLDTLESNLQHLSVLELTDSGALMANRFVSSPQTIVELFFQEVARKHIISHLFSQPKAPLSQTGLNWPEMITAITSYLLQLLWPSNPGCLFLECLMGNCQYVQLQDYIQLLHPWCQVNVGSCRFMLGRCYLVTGEGQKALECFCQAASEVGKEEFLDRLIRSEDGEIVSTPRLQYYDKVLRLLDVIGLPELVIQLATSAITEAGDDWKSQATLRTCIFKHHLDLGHNSQAYEALTQIPDSSRQLDCLRQLVVVLCERSQLQDLVEFPYVNLHNEVVGIIESRARAVDLMTHNYYELLYAFHIYRHNYRKAGTVMFEYGMRLGREVRTLRGLEKQGNCYLAALNCLRLIRPEYAWIVQPVSGAVYDRPGASPKRNHDGECTAAPTNRQIEILELEDLEKECSLARIRLTLAQHDPSAVAVAGSSSAEEMVTLLVQAGLFDTAISLCQTFKLPLTPVFEGLAFKCIKLQFGGEAAQAEAWAWLAANQLSSVITTKESSATDEAWRLLSTYLERYKVQNNLYHHCVINKLLSHGVPLPNWLINSYKKVDAAELLRLYLNYDLLEEAVDLVSEYVDAVLGKGHQYFGIEFPLSATAPMVWLPYSSIDQLLQALGENSANSHNIALSQKILDKLEDYQQKVDKATRDLLYRRTL |
| 23 | 21 | Nup93 (endogenous) (natural protein) MDTEGFGELLQQAEQLAAETEGISELPHVERNLQEIQQAGERLRSRTLTRTSQETADVKASVLLGSRGLDISHISQRLESLSAATTFEPLEPVKDTDIQGFLKNEKDNALLSAIEESRKRTFGMAEEYHRESMLVEWEQVKQRILHTLLASGEDALDFTQESEPSYISDVGPPGRSSLDNIEMAYARQIYIYNEKIVNGHLQPNLVDLCASVAELDDKSISDMWTMVKQMTDVLLTPATDALKNRSSVEVRMEFVRQALAYLEQSYKNYTLVTVFGNLHQAQLGGVPGTYQLVRSFLNIKLPAPLPGLQDGEVEGHPVWALIYYCMRCGDLLAASQVVNRAQHQLGEFKTWFQEYMNSKDRRLSPATENKLRLHYRRALRNNTDPYKRAVYCIIGRCDVTDNQSEVADKTEDYLWLKLNQVCFDDDGTSSPQDRLTLSQFQKQLLEDYGESHFTVNQQPFLYFQVLFLTAQFEAAVAFLFRMERLRCHAVHVALVLFELKLLLKSSGQSAQLLSHEPGDPPCLRRLNFVRLLMLYTRKFESTDPREALQYFYFLRDEKDSQGENMFLRCVSELVIESREFDMILGKLENDGSRKPGVIDKFTSDTKPIINKVASVAENKGLFEEAAKLYDLAKNADKVLELMNKLLSPVVPQISAPQSNKERLKNMALSIAERYRAQGISANKFVDSTFYLLLDLITFFDEYHSGHIDRAFDIIERLKLVPLNQESVEERVAAFRNFSDEIRHNLSEVLLATMNILFTQFKRLKGTSPSSSSRPQRVIEDRDSQLRSQARTLITFAGMIPYRTSGDTNARLVQMEVLMN |
